Patent publication US20240409645A1 (DUALYX, published 2024)
Changes are numbered by the printed parent chain.

T1: human IL-2Rβ (human, UniProt P14784 27-240, limits assumed)
T1 construct: Recombinant human IL-2Rβ protein, coated on ELISA plates or immobilized on a CM5 chip; also called hu IL-2R; interleukin 2 receptor β-chain
T1 sequence: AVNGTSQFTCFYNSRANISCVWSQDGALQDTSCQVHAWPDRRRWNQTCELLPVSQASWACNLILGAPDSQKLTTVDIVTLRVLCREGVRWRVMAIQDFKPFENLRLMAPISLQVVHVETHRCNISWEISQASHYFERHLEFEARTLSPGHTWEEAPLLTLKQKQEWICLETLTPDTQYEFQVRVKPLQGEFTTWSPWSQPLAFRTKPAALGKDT

T2: mouse common cytokine receptor γ-chain (IL-2Rγ) (mouse, UniProt P34902 23-263, limits assumed)
T2 construct: Recombinant mouse IL-2Rγ protein; also called mo IL-2R; mouse IL-2R gamma
T2 sequence (looked up): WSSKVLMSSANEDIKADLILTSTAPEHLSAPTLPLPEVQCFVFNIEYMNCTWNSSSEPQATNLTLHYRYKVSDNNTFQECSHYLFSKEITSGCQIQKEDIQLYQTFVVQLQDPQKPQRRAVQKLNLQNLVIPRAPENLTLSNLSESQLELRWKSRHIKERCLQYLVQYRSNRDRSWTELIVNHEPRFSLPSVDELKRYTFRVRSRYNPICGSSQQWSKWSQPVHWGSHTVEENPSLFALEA

T3: human common cytokine receptor γ-chain (IL-2Rγ) (human, UniProt P31785 23-262, limits assumed)
T3 construct: Recombinant human IL-2Rγ protein, coated (ELISA) or amine-coupled to a CM5 chip (SPR); also called hu IL-2R; CD132
T3 sequence: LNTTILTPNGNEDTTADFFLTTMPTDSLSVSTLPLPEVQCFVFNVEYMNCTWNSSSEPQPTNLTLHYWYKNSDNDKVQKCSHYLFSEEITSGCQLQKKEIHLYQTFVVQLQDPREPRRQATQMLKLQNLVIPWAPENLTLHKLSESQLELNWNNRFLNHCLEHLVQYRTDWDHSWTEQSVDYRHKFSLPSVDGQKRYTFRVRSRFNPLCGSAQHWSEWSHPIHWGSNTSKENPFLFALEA

B1: FJ1427_P035MP06H02 (VHH)
VHH: QVQLVESGGGLVQAGGSLRLSCAVSGDVFVRYTMAWFRQAPGKEREFVASVTDSGRTTEYVDSVKGRFTVSRDNAKNTAYLQMNNLKPEDTAVYYCAANTDYFQIRSLDLNTWGQGTQVTVSS
notes: Soluble VHH in periplasmic extract (P.E.); also called Clone nr
B2: FJ1427 P035MP06D08 (VHH)
VHH: B1 VHH with S123L
notes: Soluble VHH in periplasmic extract (P.E.); also called Clone nr; 540
B3: FJ1427 P035MP06B06 (VHH)
VHH: B1 VHH with Q1E, S17P
notes: as for B1
B4: FJ1427 P035MP06C09 (VHH)
VHH: B1 VHH with Q1E, V24A, A40T, A79V, D109R, L110A
notes: as for B1
B5: FJ1427_P035MP07H04 (VHH)
VHH: QVQLVESGGGLVQAGGSLRLSCAASGRTLSRYAMGWFRQAPGKEREFVAAMSWGGDTFYADSVEGRFTFSRDNAEIAVYLQMNSLQPEDTAVYYCAAAPTSFATTAYSSSNSYAYWGQGTQVTVSH
notes: tested as periplasmic extract; also called Clone nr
B6: FJ1427_P035MP07G03 (VHH)
VHH: B5 VHH with A49T, M51N, F58Y, E64Q, E75K, I76N, A77T, H126S
notes: as for B5
B7: FJ1427_P035MP07B05 (VHH)
VHH: B5 VHH with A49T, M51N, F58Y, E64Q, E75K, I76N, A77T, H126S
notes: tested as periplasmic extract; also called Clone nr; 610
B8: FJ1427_P035MP07C07 (VHH)
VHH: B5 VHH with A49T, M51N, F58Y, E64Q, E75K, I76N, A77T, H126S
notes: tested as periplasmic extract; also called Clone nr; 627
B9: FJ1427_P035MP07E03 (VHH)
VHH: B5 VHH with A49T, M51N, F58Y, E64Q, E75K, I76N, A77T, H126S
notes: tested as periplasmic extract; also called Clone nr; 597
B10: FJ1427_P035MP07H08 (VHH)
VHH: B5 VHH with A49T, M51N, F58Y, E64Q, E75K, I76N, A77T, H126S
notes: tested as periplasmic extract; also called Clone nr; 640
B11: FJ1427_P035MP07C08 (VHH)
VHH: B5 VHH with A49T, M51N, F58Y, E64Q, E75K, I76N, A77T, H126S
notes: tested as periplasmic extract; also called Clone nr; 635
B12: FJ1427_P035MP07G07 (VHH)
VHH: B5 VHH with A49T, M51N, F58Y, E64Q, E75K, I76N, A77T, H126S
notes: as for B5
B13: FJ1427_P035MP07A08 (VHH)
VHH: B5 VHH with A49T, M51N, F58Y, E64Q, E75K, I76N, A77T, H126S
notes: tested as periplasmic extract; also called Clone nr; 633
B14: FJ1427_P035MP07E06 (VHH)
VHH: B5 VHH with A49T, M51N, F58Y, E64Q, E75K, I76N, A77T, H126S
notes: as for B5
B15: FJ1427_P035MP07A07 (VHH)
VHH: B5 VHH with A49T, M51N, F58Y, E64Q, E75K, I76N, A77T, H126S
notes: as for B5
B16: FJ1427_P035MP07D03 (VHH)
VHH: B5 VHH with A49T, M51N, F58Y, E64Q, E75K, I76N, A77T, H126S
notes: as for B5
B17: FJ1427_P035MP07G02 (VHH)
VHH: B5 VHH with A49T, M51N, F58Y, E64Q, E75K, I76N, A77T, H126S
notes: as for B5
B18: FJ1427_P035MP07E10 (VHH)
VHH: B5 VHH with A49T, M51N, F58Y, E64Q, E75K, I76N, A77T, H126S
notes: tested as periplasmic extract; also called Clone nr; 653
B19: FJ1427_P035MP07H05 (VHH)
VHH: B5 VHH with M51N, F58Y, A60T, E75K, I76N, E88G, A114S, H126S
notes: as for B5
B20: FJ1427_P035MP07H10 (VHH)
VHH: EVQLVESGGGLVQAGGSLRLSCAASGRALSRLAMGWFRQAPGKEREFVVASSWGDDTFYADSVKGRFTFSRDNAKNTVYLQMNSLQPGDTAVYYCAAAPTSFATTAYSSSNSYAYWGQGTQVTVSS
notes: tested as periplasmic extract; also called Clone nr; 656
B21: FJ1427_P035MP07H07 (VHH)
VHH: B5 VHH with G16D, M51T, T57S, F58Y, E75K, I76N, Y115N, H126S
notes: as for B5
B22: FJ1427_P035MP07B07 (VHH)
VHH: QVQLVESGGGLVQAGGSLRLSCAASGRSLSRYAMGWFRQAPGKEREFVAAISWGGDSFYTDSVEGRFTFSRDNAKNAVYLEMNDLQPEDTAVYYCAAAPTSFPTTAYSSSNSYSYWGRGTQVTVSS
notes: tested as periplasmic extract; also called Clone nr; 626
B23: FJ1427_P035MP07C10 (VHH)
VHH: B22 VHH with Y32D, A50V, I51M, S57T, P103A
notes: tested as periplasmic extract; also called Clone nr; 651

What was measured:
human IL-2Rβ [1] = target: T1, human IL-2Rβ; assay: SPR off-rate ranking of P.E., human IL-2Rβ immobilized
Protocol: SPR was performed to determine dissociation rates using Biacore 3000 instrument (GE Healthcare). Briefly, human and mouse IL-2R proteins were immobilized on carboxylmethyl dextran sensor chip (CM5) at approximately 2500 RUs using amine coupling in acetate buffer (GE Healthcare). The VHH-containing P.E. were loaded with a flow rate of 30 uL/min and the off-rates were measured over a 120s period.

human IL-2Rβ [2] = target: T1, human IL-2Rβ; assay: P.E. binding ELISA, human IL-2Rβ coated
Protocol: In a binding ELISA, human or mouse IL-2Rα, IL-2Rβ and IL-2Rγ proteins were coated directly on maxisorp microtiter plates overnight at 4° C. Free binding sites were blocked using 4% Marvel in PBS for 1 hour. Next, 1:5 dilution of P.E. in 1% Marvel/PBS were added to wells and incubated for 1 hour. […] Binding specificity was determined based on O.D. at 450 nm values compared to negative controls.

[3] = target: T2, mouse common cytokine receptor γ-chain …; assay: P.E. off-rate SPR
In short: (§1)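 CM5 chip, amine coupling (acetate buffer), ~2500 RU receptor. VHH P.E. flowed at 30 uL/min; off-rate read over 120 s.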

[4] = target: T3, human common cytokine receptor γ-chain …; assay: P.E. off-rate SPR
In short: as §1

[5] = target: T2, mouse common cytokine receptor γ-chain …; assay: P.E. binding ELISA
In short: (§2)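 Plates were coated overnight at 4° C with human or mouse IL-2R chain protein, and free sites blocked for 1 hour in 4% Marvel in PBS. Periplasmic extracts diluted 1:5 in 1% Marvel/PBS then bound for 1 hour, with specificity assessed from 450 nm absorbance relative to negative controls.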

[6] = target: T3, human common cytokine receptor γ-chain …; assay: P.E. binding ELISA
In short: as §2

Binder | koff (human IL-2Rβ [1]) [s⁻¹] | OD450 nm (P.E. binding ELISA) (human IL-2Rβ [2]) [OD450 nm] | koff [3] [s⁻¹] | koff [4] [s⁻¹] | PE binding ELISA OD [5] [OD450 nm] | PE binding ELISA OD [6] [OD450 nm]
B1 | 0.000171 | 0.371 |  |  |  | 
B2 | 0.000209 | 0.836 |  |  |  | 
B3 | 0.000324 | 1.42 |  |  |  | 
B4 | 0.00101 | 0.69 |  |  |  | 
B5 |  |  | 0.0823 | 0.00177 | 0.052 | 0.593
B6 |  |  | 0.099 | 0.00309 | 0.048 | 0.495
B7 |  |  | 0.11 | 0.00282 | 0.045 | 0.439
B8 |  |  | 0.105 | 0.0025 | 0.047 | 0.469
B9 |  |  | 0.0966 | 0.00311 | 0.048 | 0.445
B10 |  |  | 0.1 | 0.00303 | 0.047 | 0.51
B11 |  |  | 0.108 | 0.00259 | 0.049 | 0.528
B12 |  |  | 0.106 | 0.00273 | 0.045 | 0.479
B13 |  |  | 0.106 | 0.00255 | 0.049 | 0.889
B14 |  |  | 0.102 | 0.00272 | 0.046 | 0.464
B15 |  |  | 0.0971 | 0.00173 | 0.047 | 1.04
B16 |  |  | 0.107 | 0.00339 | 0.046 | 1.25
B17 |  |  | 0.1 | 0.00365 | 0.051 | 1.22
B18 |  |  | 0.107 | 0.0033 | 0.047 | 0.434
B19 |  |  | 0.118 | 0.00279 | 0.049 | 1.14
B20 |  |  | 0.0137 | 0.00236 | 0.049 | 0.572
B21 |  |  | 0.00331 | 0.00418 | 0.047 | 1.42
B22 |  |  | 0.00347 | 0.00259 | 0.045 | 0.29
B23 |  |  | 0.0132 | 0.00176 | 0.074 | 0.424
